{
  "source": "patent US20220125947A1",
  "about": "(published 2022)",
  "binders": {"B1": {"name": "VG9B203 (antibody, human IgG1, lambda, V domains shown)", "VH": "QVQLVQSGPGLVKPSETLSLTCTVSGDSIGHYYWNWIRQPAGKGLEWIGRIYTSGSTNYNPSLKSRVTMSVDTSKNQFSLKLSSVTAADTAVYYCARSGGNFYWYFDLWGRGTLVTVSS", "VL": "QSVLTQPPSVSAAPGQKVTISCSGSSSNIGNNYVSWYQQVPGTAPKLLIYDNNKRPSGIPDRISGSKSGTSATLGITGLQTGDEADYYCGTWDSSLSAGVFGGGTKVTVLG", "notes": "IgG1, lambda"}, "B2": {"name": "VG9B163 (antibody, human IgG1, lambda, V domains shown)", "VH": "QVQLVQSGGGLVKPGASLKLSCAASGFTFSNHGMSWVRQTSDKRLEWVASITRGGDTTYYPDNVKGRFTISRENAKNTLYLQMSSLKSDDTALYYCTRGPLTVGYAMDYWGQGTTVTVSS", "VL": "B1 VL with S2L, S25N, N31H, V40L, K54Q, I63F, G69D, T91I, A98I, G99V", "notes": "IgG1, lambda"}, "B3": {"name": "VG9B106 (antibody, human IgG1, kappa, V domains shown)", "VH": "EVQLVQSGAEVKKPGASVKVSCKASGYTFTGYYLHWVRQAPGQGLEWVGWINPSSGDTDYAQTFQGRVTMTRDTSISTAYMELSRLRSDDTAVYYCANELGIGVFDYWGQGTLVTVSS", "VL": "not shown", "notes": "IgG1, kappa"}, "B4": {"name": "VG9B115 (antibody, human IgG1, kappa, V domains shown)", "VH": "QVTLRESGPTLVKPTQTLTLTCTFSGFSLSTYGVGVGWIRQPPGKALEWLALIYWNDDKRYNPSLKSRLTITKDTSKNQVVLTMTNMDPVGTATYYCSHESDWSYYFDYWGQGTMVTVSS", "VL": "EIVLTQSPATLSLSPGERATLSCRASQSVSSYLAWYQQKPGLAPRLLIYDASNRATGIPARFSGSGSGTDFTLTISSLEPVDFAVYYCQQRSSWPWTFGQGTKVDIKR", "notes": "IgG1, kappa"}, "B5": {"name": "VG9B380 (antibody, human IgG1, lambda, V domains shown)", "VH": "QVQLQESGPGLVKPSETLSLTCTVSGGSISNYYWSWIRQPAGKGLEWIGRIYPSGITSYDPSLKSRVTMSLDTSKNQFSLKLTSVTAADTAVYYCAGIMGTKGAFDIWGQGTMVTVSS", "VL": "QSALTQPASVSGSPGQSITISCTGTSSDVGGYNYVSWYQQHPGKAPKLLIYEVSNRPSGVSNRFSGSKSGSTASLTISGLQAEDEADYYCSSYTSTSVVFGGGTKLTVLG", "notes": "IgG1, lambda"}, "B6": {"name": "VG9B462 (antibody, human IgG1, lambda)", "heavy": "not shown", "light": "QSVLTQPASVSGSPGQSITISCTGTSSDVGGYNYVSWYQQHPGKAPKLMIYEVSNRPSGVSNRFSGSKSGNTASLTISGLQAEDEADYYCSSYTSTSVVFGGGTKLTVLGQPKAAPSVTLFPPSSEELQANKATLVCLISDFYPGAVTVAWKADSSPVKAGVETTTPSKQSNNKYAASSYLSLTPEQWKSHRSYSCQVTHEGSTVEKTVAPTECS", "notes": "IgG1, lambda"}, "B7": {"name": "VG9B461 (antibody, human IgG1, lambda)", "heavy": "not shown", "light": "B6 light with S2P, P7S, A8S, L106V", "notes": "IgG1, lambda"}, "B8": {"name": "VG9B458 (antibody, human IgG1, lambda)", "heavy": "not shown", "light": "B6 light", "notes": "IgG1, lambda"}, "B9": {"name": "VG9B103 (antibody, human IgG1, kappa, V domains shown)", "VH": "EVQLVQSGAEVKKPGSSVKVSCKTSGGTFSSYAISWVRQAPGQGLEWMGGIIPIFGTATYAQKFQDRVTITADKSTSTAYMELSSLRSEDTAVFYCARGVGWGTDYYYGLDVWGQGTTVTVSS", "VL": "ETTLTQSPLSSPVTLGQPASISCRSSQGLVHSDGNTYLSWLQQRPGQSPRLLIYKISNRFSGVPDRFSGSGAGTDFTLKISRVEAEDVGVYYCMQATHHPLTFGGGTKVEIKR", "notes": "IgG1, kappa"}, "B10": {"name": "VG9B65 (antibody, human IgG1, kappa, V domains shown)", "VH": "QVQLVQSGAEVKKPGSSVKVSCKASGGTFNIYAINWVRQAPGQGLEWMGGIIPFFGTANYAQKFQDRVTITADKSTNTAYMELSSLRSEDTAVFYCARGGDSGYDWGFDYWGQGTLVTVSS", "VL": "DIVMTQTPLSSPVTLGQPASISCRSSQSLVHSDGNTYLSWLQQRPGQPPRLLIYQISNRFSGVPDRFSGSGAGTDFTLNISRVEADDVGVYYCMQATQFPLTFGGGTKVEIKR", "notes": "IgG1, kappa"}, "B11": {"name": "VG9B81 (antibody, human IgG1, kappa, V domains shown)", "VH": "QVQLQESGPGLVKPSETLSLTCSVSGGSINTYYWSWFRQPAGKGLELIGRIYTSDNTNYNPSLKSRVTMSVDTSKNQFSLKLSSVTAADTAVYYCARYNWNYWYFDLWGRGTLVTVSS", "VL": "DIQMTQSPSFLSASVRDRVNITCRASQGISSYLAWYQQKPGKAPKLLIYTASTLQSGVPSRFSGSGSGTEFTLTISSLQPEDFATYYCQHLNSYPYTFGQGTKVEIKR", "notes": "IgG1, kappa"}, "B12": {"name": "VG9B27 (antibody, human IgG1, kappa, V domains shown)", "VH": "EVQLVQSGAEVKKPGSSVKVSCKASGGTFSSYVISWVRQAPGQGLEWMGGILPILSTANYAQKFQGRVTITADKSTSTAYMELSSLRSEDTAVYYCARAHDYYYGMDVWGQGTMVTVSS", "VL": "not shown", "notes": "IgG1, kappa"}, "B13": {"name": "VG9B131 (antibody, human IgG1, kappa, V domains shown)", "VH": "QVQLVQSGGTLVQPGGSLRLSCAVSGFTFSSYDMNWVRQAPGKGLEWVSYISSSSTAKYYADSVKGRFTISRDNAKNSLYLQMNSLWDEDTAVYYCAREDIVVVTPILQHWGQGTLVTVSS", "VL": "EIVMTQSPATLSLSPGERATLSCRASQSVSNYLAWYQQKSGQAPRLLIYDASNRATGIPARFSGSGSGTDFTLTISSLEPEDFAVYCCQQRSNWTFGQGTRLEIKR", "notes": "IgG1, kappa"}, "B14": {"name": "VG9B204 (antibody, human IgG1, lambda, V domains shown)", "VH": "QVQLQESGPGLVKPSETLSLTCTVSYGSFSSFYWSWIRQPAGKGLEWIGRIYTSGGTIYNPSLKSRVTMSVDTSKNQFSLKLSSVTAADTAVYYCARWLRAFDYWGQGTLVTVSS", "VL": "not shown", "notes": "IgG1, lambda"}, "B15": {"name": "VG9B439 (antibody, human IgG1, lambda)", "heavy": "not shown", "light": "B6 light with V3A", "notes": "IgG1, lambda"}, "B16": {"name": "VG9B449 (antibody, human IgG1, lambda)", "heavy": "not shown", "light": "B6 light with S2A, L106V", "notes": "IgG1, lambda"}, "B17": {"name": "VG9B454 (antibody, human IgG1, lambda)", "heavy": "not shown", "light": "B6 light with S2A", "notes": "IgG1, lambda"}, "B18": {"name": "VG9B68 (antibody, human IgG1, kappa, V domains shown)", "VH": "B9 VH with Q6E, T24A, S31T, K63R, T69M, S77T, T104S, T118M", "VL": "B9 VL with T2I, T3V, L4M, G28S, K79R, S81T, A85P, M94I, K108R, V109L", "notes": "IgG1, kappa"}},
  "note": "Numbering of substitutions follows the chain as printed.",
  "data": [
    {"molecular_target": "T1, gamma-delta T cell receptor on human γδ T cells (human)", "T1 construct": "also called AG000003021 (γδ T cells)", "assay": "flow cytometry, dose-response binding at 37 C, human γδ T cells", "experimental": "(§1) Binding of antibodies to human γδ T cells or SKW cell lines expressing Vγ9/Vδ2, Vγ9/Vδ2 or Vγ5/Vδ2 was carried out by flow cytometry. Briefly, the cells were centrifuged at 300×g for 5 minutes and the pellet was resuspended in 34 ml fresh media (in RPMI+10% FBS). 50 μL of the cells were then plated (44K cells/well) into assay plates. Samples were incubated for one hour at 37° C. in tissue culture (TC) incubator followed by wash steps by adding 100 μl FACS staining buffer. Secondary detention antibodies (A647 conjugated anti-human IgG Fc specific antibody (2 μg/mL) along with AF488 anti mouse CD3, clone OKT3 at 1 ug/mL) were added at 50 μL/well to appropriate wells according to the plate map. After incubating for 60 minutes at 37° C. in the TC incubator, cells were again washed as described above. This is followed by resuspension in 20 μL/well running buffer containing 1:1000 dilution of Sytox blue dead cell stain and the plates were run on iQue Screener.\n(§2) Gating and data analysis: Human anti-human Vγ9 antibody (VG9B2 mAb at 10 nM) was used to mark the gating of positive population. All cells were first gated for singlets on SCS-A vs. SCS-H dot plot, live/dead followed by CD3 positive population, and this subset of CD3 positive population was gated for Vγ9 positive binding using positive control mAb. Cells were also assessed for cell binding of control mAbs by RL1 (A647) Geomeans from the live cell population. Advanced metrics were used and normalization metrics were chosen to calculate fold over background wells containing secondary antibody alone (designated as ‘background’ within ForeCyt settings).", "units": {"Max. Activity": "fold over background"}, "values": [
      {"binder": "B1", "Max. Activity": 1750},
      {"binder": "B2", "Max. Activity": 1350},
      {"binder": "B3", "Max. Activity": 1520},
      {"binder": "B4", "Max. Activity": 1520},
      {"binder": "B5", "Max. Activity": 1750},
      {"binder": "B6", "Max. Activity": 1540},
      {"binder": "B7", "Max. Activity": 1540},
      {"binder": "B8", "Max. Activity": 1410},
      {"binder": "B9", "Max. Activity": 1680},
      {"binder": "B10", "Max. Activity": 1820},
      {"binder": "B11", "Max. Activity": 1770},
      {"binder": "B12", "Max. Activity": 1450},
      {"binder": "B13", "Max. Activity": 1400}
    ]},
    {"molecular_target": "T2, γδ T cell receptor on human γδ T cells (human)", "T2 construct": "also called AG000003021 (γδ T cells)", "assay": "flow cytometry, DRC binding 37 C, human γδ T cells", "experimental": "as §1, §2", "units": {"Max. Activity": "fold over background"}, "values": [
      {"binder": "B14", "Max. Activity": 1130},
      {"binder": "B15", "Max. Activity": 1240},
      {"binder": "B16", "Max. Activity": 1180},
      {"binder": "B17", "Max. Activity": 1240},
      {"binder": "B18", "Max. Activity": 1190}
    ]}
  ]
}
